Experimental data reported in PMC3465527.

B1: chimeric RNA-DNA duplex 14-bp (mixed)
? 1: GGGCGGGCCCGCCC
? 2: GGGCGGGCCCGCCC
modifications: each strand rGrGrGrCrGrGrGdCdCdCdGdCdCdC: nt 1-7 RNA, nt 8-14 DNA
B2: FAM-dsRNA 14-bp (dsRNA)
RNA 1: GGGCGGGCCCGCCC
RNA 2: GGGCGGGCCCGCCC

Key:
[1] = target: T1, Mss116p D2 (with CTE) (Saccharomyces cerevisiae? (paper: yeast), UniProt P15424 342-597); test: X-ray crystallography
T1 sequence: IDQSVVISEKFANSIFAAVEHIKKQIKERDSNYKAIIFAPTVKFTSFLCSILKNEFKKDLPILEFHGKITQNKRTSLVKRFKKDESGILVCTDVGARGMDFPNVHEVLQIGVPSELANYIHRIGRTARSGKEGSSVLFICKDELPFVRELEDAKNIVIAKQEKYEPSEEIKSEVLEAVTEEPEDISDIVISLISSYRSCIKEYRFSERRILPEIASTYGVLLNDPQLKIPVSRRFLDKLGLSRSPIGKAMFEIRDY

[2] = target: T2, Mss116p MBP-D1 (Saccharomyces cerevisiae? (paper: yeast), UniProt P15424 88-330); test: EMSA
T2 sequence: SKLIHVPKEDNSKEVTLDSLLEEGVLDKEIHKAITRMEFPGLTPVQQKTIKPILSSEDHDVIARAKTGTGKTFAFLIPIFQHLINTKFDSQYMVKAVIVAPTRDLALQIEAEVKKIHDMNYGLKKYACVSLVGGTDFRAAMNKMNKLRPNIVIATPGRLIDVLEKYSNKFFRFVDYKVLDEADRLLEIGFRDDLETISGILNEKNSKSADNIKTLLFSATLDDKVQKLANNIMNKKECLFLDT

| Binder | binding result [1] | binding result [2] |
| --- | --- | --- |
| B1 | binds |  |
| B2 |  | no binding |
